First the molecules themselves.
B1: I22 (antibody, V domains shown)
VH: EVQLQQSGAELVRSGASVKLSCTASGFNIKDYYMHWVKQRPEQGLEWIGWVDPENGDSDYAPKFQGKATMTADTSSNTVYLQFSSLTSEDTAVYYCNAFEYDGNYSPLDFWGQGTSVTVSS
VL: DIVMTQSPSSLSVSAGEKVTMSCKSSQSLLNSGNQKNYLAWYQQKPGQPPKLLIYGASTRESGVPDRFTGSGSGTDFTLTISSVQAEDLAVYYCQNDHSYPLTFGAGTKLELK
notes: Murine hybridoma antibody; Family 1
B2: I54 (antibody, V domains shown)
VH: B1 VH
VL: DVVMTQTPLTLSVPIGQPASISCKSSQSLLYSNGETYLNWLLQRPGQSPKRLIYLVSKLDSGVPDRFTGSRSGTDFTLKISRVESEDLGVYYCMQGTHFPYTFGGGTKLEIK
notes: Murine hybridoma antibody; Family 1; also called 154
B3: C63 (antibody, V domains shown)
VH: EVKLEESGGGLVQPGGSMKLSCVASGFTFSNYWMNWVRQSPEKGLEWVAEIRSKSNNYATHYAESVKGRFTISRDDSKSSVYLQMNNLRAEDTGIYYCIGEDYGGDYWGQGTSVTVSS
VL: DIVMSQSPSSLAVSVGEKVTMSCKSSQSLLYSSDQRNYLAWYQQRSGQSPKLLIYWASTRESGVPDRFTGSGSGTDFTLTISSVKAEDLAVYYCQQYYSYPYTFGGGTKLEIK
notes: Murine hybridoma antibody; Family 2
B4: humanized F151 variant HC2a/LC2a (antibody, human IgG1, V domains shown)
VH: QIQLVQSGAEVKKPGASVKVSCKASGYSFTDYNIYWVKQSPGKGLEWIGYFDPYNGNTGYNQKFRGKATLTVDKSSSTAYMHLSSLTSEESAVYYCANYYRYDDHAMDYWGQGTSVTVSS
VL: DIVMTQSPSSLSASVGDRVTISCKSSQSLLYSSNQKNYLAWYQQKPGKSPKPLIYWASTRESGVPDRFSGSGSGTDFTLTISSVQAEDLATYYCQQYYSYPWTFGGGTKLEIK
notes: also called LC2axHC2a
B5: humanized F151 variant HC1/LC1 (antibody, V domains shown)
VH: B4 VH with Q1E, A9P, G44S, Y80F, E90D
VL: B4 VL with T5S, S12A, I21M, S69T, T91I
notes: also called LC1xHC1
B6: humanized F151 variant HC2c/LC2b (antibody, human IgG1, V domains shown)
VH: B4 VH with L86K
VL: B4 VL with L89K
notes: also called LC2bxHC2c
B7: humanized F151 variant HC2b/LC2a (antibody, human IgG1, V domains shown)
VH: B4 VH with Q62E
VL: B4 VL
notes: also called LC2axHC2b
B8: humanized F151 variant HC3a/LC3a (antibody, human IgG1, V domains shown)
VH: QIQLVQSGAEVKKPGASVKVSCKASGYSFTDYNIYWVRQAPGQGLEWIGYFDPYNGNTGYNQKFRGRATLTVDKSTSTAYMELRSLRSDDTAVYYCANYYRYDDHAMDYWGQGTLVTVSS
VL: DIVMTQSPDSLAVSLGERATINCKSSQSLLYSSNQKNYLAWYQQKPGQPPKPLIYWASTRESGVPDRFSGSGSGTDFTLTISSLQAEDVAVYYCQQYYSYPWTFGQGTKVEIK
notes: also called hF151
B9: humanized F151 variant HC3b/LC3b (antibody, human IgG1, V domains shown)
VH: B8 VH with I2V, I48M, A68V, L70M, V72T, K74T
VL: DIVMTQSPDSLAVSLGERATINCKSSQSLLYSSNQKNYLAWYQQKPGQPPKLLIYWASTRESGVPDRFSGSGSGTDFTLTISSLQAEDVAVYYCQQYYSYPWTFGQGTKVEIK
notes: also called LC3bxHC3b

This is an account of results in US20230399388A1 (Sanofi, published 2023).

Residue numbers refer to the chain shown, from its start. Primed or numbered codes have the meaning given here. Ends that are not written are not given here. Biotin′ = not defined here Bounds are passed on as bounds.
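Throughout, for kon: purified antibodies injected as twofold dilutions from 0.1 to 10 nM in HBS-EP over streptavidin-captured biotinylated BKR1 or BKR2 ligand peptides, with a random-peptide flow cell as reference.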

The target in the first test is desArg10kallidin. Kind of test: cell-based or functional assay.
B1: the “FLIPR (nM), DAKD (50 nM)” value stood at 9.4 nM.

Consider B2, for which the “FLIPR (nM), DAKD (50 nM)” value turned out to be 8.1 nM.

The target in the next test is T1, kallidin.
T1 peptide: KRPPGFSPFR
As to the kind of experiment: cell-based or functional assay.
With B1, the “FLIPR (nM), KD (15 nM)” value stood at 25 nM.

As for B2, the “FLIPR (nM), KD (15 nM)” value was determined as 30 nM.

The next test has as its target T2, …-biotin (C-terminal biotin).
T2 construct: also called DAKD-b; DAKD-biotin
As to the kind of experiment: Biacore, biotin-peptide on SA chip. Background: SPR reads the build-up and loss of mass on a sensor chip optically.
From the text: (§1) For antibody binding kinetics, the instruments used were the BIACORE 2000 or BIACORE 3000 (GE Healthcare), designed for biomolecular interaction analysis (BIA) in real time. The sensor chip used was SA chip (GE Healthcare) with streptavidin covalently immobilized on a carboxymethylated dextran matrix. Each sensor chip has four parallel flow cells (Fc). Every biotinylated BKR1 or BKR2 ligand peptides were immobilized to one of the flow cells 2 to 4 (Fc2 to Fc4) in the SA chip for binding dissociation rate screening and selectivity screening. Flow cell 1 (Fc1) was reserved and immobilized with a random peptide (biotinylated at one terminus) with equal or close peptide length in comparison to the testing ligand peptides as the negative control. In screening assays, cell culture supernatants of the hybridoma clones selected through primary screening of transiently expressed humanized variants were injected over immobilized peptides. Hybridoma cell culture media was also injected over the chip surface as blank to establish a baseline. After subtracting signals of Fc1 and blank buffer runs, the dissociation rate of the antibodies from the supernatants to each peptide was analyzed and ranked using BIAevaluation software. […] In kinetics analysis, the corresponding biotin-peptides identified in screening for the testing antibody were immobilized in Fc2 to Fc4 while Fc1 with a random peptide used as reference cell. Each purified antibody selected from screenings were made into a series of two fold dilutions in running buffer (1×HBS-EP buffer, GE Healthcare) between 0.1 to 10 nM. Binding association rate, dissociation rate and the overall affinity were calculated in BIAevaluation.
In the case of B3, the Kd (as a rule, a measure of binding affinity in units of concentration) is 0.142 nM and the koff (in general, the rate constant with which the complex falls apart) was found to be 9.36e-05 s⁻¹.

With B1, the Kd amounted to 0.217 nM and the koff worked out at 0.000319 s⁻¹.

Turning to B2, the Kd worked out at 0.00953 nM and the koff was 3.06e-05 s⁻¹.

Another test addresses T3, RRPPGFSPF-biotin (mouse).
T3 construct: also called DAKLP-b; DAKLP-biotin
T3 peptide: RRPPGFSPF-{Biotin′}
Kind of test: Biacore, biotin-peptide on SA chip.
From the text: as §1
With B3, the binding result is listed as “no binding”.

For the molecule B1, the Kd is no more than 0.00183 nM and the koff is no more than 1e-06 s⁻¹.

Molecule B2 yielded a Kd of 0.0117 nM and a koff of 5.66e-05 s⁻¹.

The next test addresses T4, KRPPGFSPFR-biotin.
T4 construct: also called KD-b; KD-biotin
T4 peptide: KRPPGFSPFR-biotin
As to the kind of experiment: Biacore, biotin-peptide on SA chip.
From the text: as §1
B3 came in with a Kd of 0.221 nM and a koff of 0.0001 s⁻¹.

In turn, B1 returned a Kd of 0.0044 nM and a koff of 2.1e-05 s⁻¹.

With B2, the Kd was found to be 0.0112 nM and the off-rate constant (koff) came out at 3.88e-05 s⁻¹.

Another test concerns the target T5, RRPPGFSPFR-biotin (mouse).
T5 construct: also called KLP-b; KLP-biotin
T5 peptide: RRPPGFSPFR-biotin
Kind of test: Biacore, biotin-peptide on SA chip.
From the text: as §1
Regarding B3, the binding result is recorded as “no binding”.

As for B1, the Kd was 1.82 pM and the koff was 1.03e-05 s⁻¹.

B2 returned a Kd of 9.56 pM and a koff of 6.04e-05 s⁻¹.

The next test deals with T2, …-biotin. Kind of test: Biacore, biotin-peptide on SA chip. This is another data set of the same source.
From the text: as §1
Take B4: the Kd came to 0.0183 nM, the koff was 1.22e-05 s⁻¹ and the kon (commonly the rate constant with which the complex forms) was 666000 M⁻¹ s⁻¹.

As for B5, binding was characterised by a dissociation constant (Kd) of 0.0145 nM, the koff was 6e-06 s⁻¹ and the kon came out at 416000 M⁻¹ s⁻¹.

For the molecule B6, the Kd turned out to be 0.0901 nM, the koff was 4.34e-05 s⁻¹ and the kon was determined as 481000 M⁻¹ s⁻¹.

As to B7, the Kd was 0.0257 nM, the koff was 1.05e-05 s⁻¹ and the kon was 417000 M⁻¹ s⁻¹.

Molecule B8 gave a Kd of 0.0253 nM, a koff of 1.28e-05 s⁻¹ and an on-rate constant (kon) of 506000 M⁻¹ s⁻¹.

B9 showed a Kd of 0.135 nM, a koff of 5.15e-05 s⁻¹ and a kon of 385000 M⁻¹ s⁻¹.

For another test, the target named is T3, RRPPGFSPF-biotin. As to the kind of experiment: Biacore, biotin-peptide on SA chip. This is another data set of the same source.
From the text: as §1
Molecule B4 returned a Kd of 0.0138 nM, a koff of 5.67e-06 s⁻¹ and a kon of 410000 M⁻¹ s⁻¹.

The molecule B5 showed a Kd of 0.016 nM, a koff of 7.96e-06 s⁻¹ and a kon of 500000 M⁻¹ s⁻¹.

In turn, B6 came in with a Kd of 0.0121 nM, a koff of 1.1e-05 s⁻¹ and a kon of 903000 M⁻¹ s⁻¹.

On to B7, for which the Kd came to 0.0297 nM, the koff came to 1.3e-05 s⁻¹ and the kon was 446000 M⁻¹ s⁻¹.

In turn, B8 yielded a Kd of 0.0305 nM, a koff of 1.42e-05 s⁻¹ and a kon of 465000 M⁻¹ s⁻¹.

In turn, B9 gave a Kd of 40.5 nM, a koff of 0.00276 s⁻¹ and a kon of 70400 M⁻¹ s⁻¹.

Another test concerns the target T4, KRPPGFSPFR-biotin. As to the kind of experiment: Biacore, biotin-peptide on SA chip. This is another data set of the same source.
From the text: as §1
Take B4: the equilibrium dissociation constant (Kd) came to 8.71 pM, the koff turned out to be 6.12e-06 s⁻¹ and the kon was found to be 703000 M⁻¹ s⁻¹.

Regarding B5, the affinity, expressed as Kd, was 0.394 pM; the koff turned out to be 1.74e-07 s⁻¹; the kon turned out to be 424000 M⁻¹ s⁻¹.

The molecule B6 returned a Kd of 17.4 pM, a koff of 9.08e-06 s⁻¹ and a kon of 564000 M⁻¹ s⁻¹.

Regarding B7, the Kd was 4.72 pM, the koff was 1.66e-06 s⁻¹ and the kon is 375000 M⁻¹ s⁻¹.

Turning to B8, the Kd was found to be 6.78 pM, the koff came to 2.95e-06 s⁻¹ and the kon is 427000 M⁻¹ s⁻¹.

Consider B9, for which the Kd turned out to be 14.4 pM, the koff is 3.02e-06 s⁻¹ and the kon worked out at 251000 M⁻¹ s⁻¹.

In a further test the target is T5, RRPPGFSPFR-biotin. Kind of test: Biacore, biotin-peptide on SA chip. The source holds these as a separate data set.
From the text: as §1
B4 gave a Kd of 0.0434 nM, a koff of 2.68e-05 s⁻¹ and a kon of 615000 M⁻¹ s⁻¹.

The molecule B5 displayed a Kd of 0.00554 nM, a koff of 2.67e-06 s⁻¹ and a kon of 481000 M⁻¹ s⁻¹.

For B6, binding was characterised by a dissociation constant (Kd) of 0.0198 nM, the koff worked out at 1.02e-05 s⁻¹ and the kon came to 516000 M⁻¹ s⁻¹.

The molecule B7 showed a Kd of 0.00576 nM, a koff of 2.2e-06 s⁻¹ and a kon of 401000 M⁻¹ s⁻¹.

B8 had a Kd of 0.00106 nM, a koff of 5.43e-07 s⁻¹ and a kon of 502000 M⁻¹ s⁻¹.

For the molecule B9, the affinity, expressed as Kd, was 0.526 nM; the koff was found to be 0.000272 s⁻¹; the kon was 539000 M⁻¹ s⁻¹.

In a further test the target is T2, …-biotin. As to the kind of experiment: Biacore, biotin-peptide on SA chip. This is another data set of the same source.
B3 came in with a Kd of 0.142 nM.

For a further test, the target named is T4, KRPPGFSPFR-biotin. Kind of test: Biacore, biotin-peptide on SA chip. The source holds these as a separate data set.
As for B3, the Kd was determined as 0.221 nM.

For another test, the target named is T1, kallidin. As to the kind of experiment: cell-based or functional assay. This is another data set of the same source.
Regarding B3, the “Mean Molar Ratio, ligand depletion, calcium mobilization in MRC5 cells” value came to 0.23 molar ratio.

As for B1, the “Mean Molar Ratio, ligand depletion, calcium mobilization in MRC5 cells” value was 0.22 molar ratio.

B2: the “Mean Molar Ratio, ligand depletion, calcium mobilization in MRC5 cells” value was 0.3 molar ratio.

Another test addresses T6, biotin-… (N-terminal biotin).
T6 construct: also called b-BK
Kind of test: ELISA, biotin-peptide on streptavidin plate. A general note: An ELISA detects its analyte on a solid surface through an enzyme-linked reagent.
In the case of B3, the binding result is given as “no binding”.

In a further test the target is T7, biotin-RPPGFSPF (N-terminal biotin).
T7 construct: also called b-DABK; biotin-DABK
Kind of test: ELISA, biotin-peptide on streptavidin plate.
For B2, the binding result is “binds”.

For a further test, the target named is T8, RPPGFSPF-biotin (C-terminal biotin).
T8 construct: also called DABK-b
Kind of test: ELISA, biotin-peptide on streptavidin plate.
Take B2: the binding result is “binds”.

The next test has as its target T9, …-biotin (C-terminal biotin).
T9 construct: also called BK-b
Kind of test: ELISA, biotin-peptide on streptavidin plate.
Turning to B3, the binding result is given as “no binding”.

The target in the next test is T10, desArg10kallidin like peptide (mouse).
T10 peptide: RRPPGFSPF
Kind of test: cell-based or functional assay.
In the case of B3, the “Mean Molar Ratio, ligand depletion, calcium mobilization in HEK mBKR1 cells” value amounted to 5.85 molar ratio.

Consider B1, for which the “Mean Molar Ratio, ligand depletion, calcium mobilization in HEK mBKR1 cells” value is 0.21 molar ratio.

For B2, the “Mean Molar Ratio, ligand depletion, calcium mobilization in HEK mBKR1 cells” value turned out to be 0.35 molar ratio.

The target in a further test is desArg10kallidin. Kind of test: cell-based or functional assay. The source holds these as a separate data set.
As for B3, the “Mean Molar Ratio, ligand depletion, calcium mobilization in HEK mBKR1 cells” value came out at 0.08 molar ratio.

Consider B1, for which the “Mean Molar Ratio, ligand depletion, calcium mobilization in HEK mBKR1 cells” value was determined as 0.07 molar ratio.

As for B2, the “Mean Molar Ratio, ligand depletion, calcium mobilization in HEK mBKR1 cells” value is 0.15 molar ratio.
